The values that follow come from patent publication US20260217833A1 (APTEVO RESEARCH AND DEVELOPMENT, published 2026).

For one assay, the target named is T1, Human PD-L1 full-length (human, UniProt Q9NZQ7 19-290).
T1 construct: also called PDL01021; CHOK1SV/huPDL1
Put plainly: MSD cell binding, CHOK1SV/human PD-L1 cells; x axis without printed unit.

The next assay addresses T2, Cyno PD-L1 full-length (cynomolgus, UniProt Q9NZQ7 19-290 (human entry)).
T2 construct: also called PDL01022; CHOK1SV/cynoPDL1
Put plainly: MSD cell binding, CHOK1SV/cynomolgus PD-L1 cells; x axis without printed unit.

In a further assay the target is T3, Cynomolgus CHOK1SV/CD40.
T3 construct: also called Cyno CD40 full-length; CD4001013
T3 receptor chain: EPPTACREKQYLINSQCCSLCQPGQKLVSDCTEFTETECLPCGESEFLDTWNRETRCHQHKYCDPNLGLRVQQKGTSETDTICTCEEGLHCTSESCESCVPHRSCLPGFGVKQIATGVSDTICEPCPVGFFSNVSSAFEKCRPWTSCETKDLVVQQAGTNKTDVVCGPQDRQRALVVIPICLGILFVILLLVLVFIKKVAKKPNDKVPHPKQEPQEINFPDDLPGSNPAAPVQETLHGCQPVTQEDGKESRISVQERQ
Briefly: flow cytometry, CHOK1SV/cynomolgus CD40 cells. In general terms: A flow cytometer gives signals particle by particle.

A further assay deals with T4, human CD40 full-length (human, UniProt P25942 21-277).
T4 construct: Also used for CD40 of Daudi cells, of CD40-expressing HEK293 cells and of the BPS CD40/NFkB HEK293 reporter cells where the row says so; also called CD4001012; CHOK1SV/CD40
Put plainly: flow cytometry, CHOK1SV/human CD40 cells.

T2 sequence (Q9NZQ7 other isoform, or with tags, fused parts or gaps): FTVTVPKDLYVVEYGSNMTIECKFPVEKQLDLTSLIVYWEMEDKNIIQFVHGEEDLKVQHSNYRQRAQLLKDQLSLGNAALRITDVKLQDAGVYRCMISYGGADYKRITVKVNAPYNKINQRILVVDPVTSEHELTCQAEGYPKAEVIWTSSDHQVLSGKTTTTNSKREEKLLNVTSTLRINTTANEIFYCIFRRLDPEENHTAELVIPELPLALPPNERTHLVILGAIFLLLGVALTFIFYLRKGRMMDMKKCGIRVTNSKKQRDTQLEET
T1 sequence (Q9NZQ7 19-290): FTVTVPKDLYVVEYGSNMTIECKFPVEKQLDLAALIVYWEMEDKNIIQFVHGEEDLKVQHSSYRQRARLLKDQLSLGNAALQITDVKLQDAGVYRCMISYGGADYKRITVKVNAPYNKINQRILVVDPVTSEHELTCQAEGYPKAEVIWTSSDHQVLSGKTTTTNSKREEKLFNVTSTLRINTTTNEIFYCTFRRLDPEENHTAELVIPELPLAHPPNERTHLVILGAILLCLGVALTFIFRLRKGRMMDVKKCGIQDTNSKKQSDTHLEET

B1: PDL01038 (Fc fusion)
scFv: EVQLQESGPSLVKPSQTLSLTCSVTGDSITSGYWNWIRKFPGNRLEYMGFRSYSGTTYYNPSLKSRISITRDTSKNQYYLQLNSVTTEDTATYYCARFSDFGSSENTMDYWGQGTSVTVSSGGGGSGGGGSGGGGSGGGGSDVQITQSPSYLAASPGETITINCRASKSISKYLAWYQEKPGKTNKLLIYSGSTLQSGIPSRFSGSGSGTDFTLTISSLEPEDFAMYYCQQHNEYPFTFGAGTKLEIK
notes: also called 7A3-2HL x human IgG1 WT Fc; not shown: human IgG1 WT Fc (hinge-CH2-CH3) and its junction to the scFv
Take B1: the binding result in the assay with Human PD-L1 full-length and with Cyno PD-L1 full-length was “binds” in each case.

B2: PDL01041 (Fc fusion)
scFv: DIQMTQSPASLSASVGETVTITCRASENIYSFLAWYQQKQGKSPQLLVYKAKTLTEGVPSRFSGSGSGTQFSLKINSLQPEDFGSYYCQHHYGSPPETFGGGTKVEIKGGGGSGGGGSGGGGSGGGGSDVKLVESGGGLVKPGGSLKLSCAASGFTFSSYTMSWVRQTPEKRLEWVATISSGGNYTYYPDSVKGRFTISRDNAKNTLYLQLSSLKSEDTAMYYCTRDQAYYGNLFTYWGQGTLVTVSA
notes: also called 2C11LH x human IgG1 WT Fc; not shown: human IgG1 WT Fc and any junction residues between scFv and hinge
Consider B2, for which the binding result in the assay with Human PD-L1 full-length and in the assay with Cyno PD-L1 full-length was “binds” each time.

B3: PDL01048 (Fc fusion, not shown: a dimerising Fc or GST; small tags and cut ends)
scFv: DIVLTQSPASLAVSLGQRATISCRASKSVSKSGYSYLHWYQQKPGQTPKLLIYLASNLESGVPARFSGSGSGTDFTLNIHPVEEEDAATYYCQHSWELPYTFGGGTKLEIKGGGGSGGGGSGGGGSGGGGSEVQLQESGPSLVKPSQTLSLTCSVTGDSITSGYWNWIRKFPGKKLEYMGYISYTGSTYYNPSLKSRISIARDTSKNQYFLQLNSVTTEDTATYYCTRGENWDGGYFDYWGQGTTLTVSS
notes: also called 7H11LH x human IgG1 WT Fc
For the molecule B3, the binding result with Human PD-L1 full-length and with Cyno PD-L1 full-length was “binds” throughout.

B4: PDL01039 (Fc fusion)
scFv: EVQLQESGPSLVKPSQTLSLTCSVTGDSITSGYWNWIRKFPGKKLEYMGYISYTGSTYYNPSLKSRISIARDTSKNQYFLQLNSVTTEDTATYYCTRGENWDGGYFDYWGQGTTLTVSSGGGGSGGGGSGGGGSGGGGSDIVLTQSPASLAVSLGQRATISCRASKSVSKSGYSYLHWYQQKPGQTPKLLIYLASNLESGVPARFSGSGSGTDFTLNIHPVEEEDAATYYCQHSWELPYTFGGGTKLEIK
notes: also called 7H11HL x human IgG1 WT Fc; not shown: human IgG1 WT Fc (hinge-CH2-CH3) and its junction to the scFv
B4: the binding result with Human PD-L1 full-length and with Cyno PD-L1 full-length was “binds” each time.

B5: PDL01050 (antibody, human IgG1, kappa, V domains shown)
VH: EVKFEESGGGLVQPGGSMKLSCFASGFTFSYYWMNWVRQSPEKGLEWIAEIRLKSNNYATHYAESVKGRFTISRDDSKSSVYLEMNNLRAEDTGIYHCTRPPIYYGNYEAYWGQGTLVTVSA
VL: DIQMTQSPSSLSASLGGKVTITCKASQDINKYIAWYQHKPGKGPRLLIHYTSILQPGIPSRFSGSGSGRDYSFSISNLEPEDIATYYCLQYDNLRTFGGGTKLEIKR
notes: positive control; also called 5F11 chimeric mAb
Consider B5, for which the binding result with Human PD-L1 full-length and in the assay with Cyno PD-L1 full-length was “binds” throughout.

B6: PDL01042 (Fc fusion)
scFv: DIQMTQTTSSLSASLGDRVTISCSASQGIRNYLNWYQQKPDGTVKLLIYYTSTLHSGVPSRFSGSGSGTDYSLTISNLEPEDIATYYCQQYSKLPWTFGGGTRLEIKGGGGSGGGGSGGGGSGGGGSQIQLQQSGPELVKPGASVKISCKASGYTFTDYYINWVKQKPEQGLEWIGWTFPGSINTKYNEKFKGKATLTVDTSSSTAYMQLNSLTSEDTAVYFCARSPYEFDYWGQGTTLTVSS
notes: also called 3G5LH x human IgG1 WT Fc; not shown: human IgG1 WT Fc (hinge-CH2-CH3) fused C-terminal to the scFv, and its junction
For B6, the binding result with Human PD-L1 full-length and in the assay with Cyno PD-L1 full-length was “binds” each time.

B7: CD4001242 (Fc fusion)
chain: EPKSSDKTHTCPPCPAPPAAAPSVFLFPPKPKDTLMISRTPEVTCVVVDVSHEDPEVKFNWYVDGVEVHNAKTKPREEQYNSTYRVVSVLTVLHQDWLNGKEYKCAVSNKALPAPIEKTISKAKGQPREPQVYTLPPSRDELTKNQVSLTCLVKGFYPSDIAVEWESNGQPENNYKTTPPVLDSDGSFFLYSKLTVDKSRWQQGNVFSCSVMHEALHNHYTQKSLSLSPGGGGSPSDIQMTQSPSSVSASVGDRVTITCRASQSLLFSVNQKNYLAWYQQKPGKAPKLLIYWASSLQSGVPSRFSGSGSGTDFTLTISSLQPEDFATYYCQHYYSYPWTFGQGTKVEIKGGGGSGGGGSGGGGSGGGGSQVQLVQSGAEVKKPGSSVKVSCKASGYTFSTSWIEWIRQAPGQGLEWMGSILPGSGSTNYAQKFQGRVTITADTSTSTAYMELSSLRSEDTAVYYCARGDDGSYVRWYFDHWGQGTLVTVSS
notes: also called final humanized version of 1D5
In the case of B7, the binding result in the assay with Cynomolgus CHOK1SV/CD40 is “binds”.

B8: PDL01049 (10B2LH x human IgG1 WT Fc) (Fc fusion)
chain: DIQMTQTTSSLSASLGDRVTISCRASQDIRNYLNWYQQKPDGTVKLLIYYTSRLQSGVPSRFSGSGSGTDYSLTITTLEQEDFATYFCQQGNMFPYTFGGGTKLEIKGGGGSGGGGSGGGGSGGGGSKVQLQQSGAEVVKPGASVKLSCKASGYNLTEYIIHWVKQRSGQGLEWIGWFYPGSGSIKYNEKFKDKATLTADKSSTTVYMDLSRLTSEDSAVYFCARHGLYYGFPYWGQGTSVTVSS
notes: not shown: human IgG1 WT Fc
On to B8, for which the binding result with Human PD-L1 full-length and with Cyno PD-L1 full-length was “binds” each time.

B9: PC401129 (bispecific antibody)
scFv-Fc-scFv chain: DIQMTQSPSSLSASVGDRVTITCRASQDINKFLSWYQQKPGKAPKLLIHYTSSLQSGVPSRFSGSGSGTDFTLTISSLQPEDFATYYCLQYDNLYTFGQGTKLEIKGGGGSGGGGSGGGGSGGGGSEVQLVESGGGLVQPGGSLRLSCAASGFTFSDYGMAWVRQAPGKGLEWVSFITSLAYIIYYADSVKGRFTISRDNAKNSLYLQMNSLRAEDTAVYYCARNYGSSPYYFDYWGQGTLVTVSSEPKSSDKTHTCPPCPAPPAAAPSVFLFPPKPKDTLMISRTPEVTCVVVDVSHEDPEVKFNWYVDGVEVHNAKTKPREEQYNSTYRVVSVLTVLHQDWLNGKEYKCAVSNKALPAPIEKTISKAKGQPREPQVYTLPPSRDELTKNQVSLTCLVKGFYPSDIAVEWESNGQPENNYKTTPPVLDSDGSFFLYSKLTVDKSRWQQGNVFSCSVMHEALHNHYTQKSLSLSPGGGGSPSDIQMTQSPSSVSASVGDRVTITCRASQSLNFSVNQKNYLAWYQQKPGKAPKLLIYWASSLQSGVPSRFSGSGSGTDFTLTISSLQPEDFATYYCQHYYSYPWTFGQGTKVEIKGGGGSGGGGSGGGGSGGGGSQVQLVQSGAEVKKPGSSVKVSCKASGYTFSTSWIEWIRQAPGQGLEWMGSILPGSGSTNYAQKFQGRVTITADTSTSTAYMELSSLRSEDTAVYYCARGDDGSYVRWYFDHWGQGTLVTVSS
notes: also called L-Leu30Asn
On to B9, for which the binding result with human CD40 full-length and with Cynomolgus CHOK1SV/CD40 was “binds” throughout.

B10: PC401132 (bispecific antibody)
scFv-Fc-scFv chain: DIQMTQSPSSLSASVGDRVTITCRASQDINKFLSWYQQKPGKAPKLLIHYTSSLQSGVPSRFSGSGSGTDFTLTISSLQPEDFATYYCLQYDNLYTFGQGTKLEIKGGGGSGGGGSGGGGSGGGGSEVQLVESGGGLVQPGGSLRLSCAASGFTFSDYGMAWVRQAPGKGLEWVSFITSLAYIIYYADSVKGRFTISRDNAKNSLYLQMNSLRAEDTAVYYCARNYGSSPYYFDYWGQGTLVTVSSEPKSSDKTHTCPPCPAPPAAAPSVFLFPPKPKDTLMISRTPEVTCVVVDVSHEDPEVKFNWYVDGVEVHNAKTKPREEQYNSTYRVVSVLTVLHQDWLNGKEYKCAVSNKALPAPIEKTISKAKGQPREPQVYTLPPSRDELTKNQVSLTCLVKGFYPSDIAVEWESNGQPENNYKTTPPVLDSDGSFFLYSKLTVDKSRWQQGNVFSCSVMHEALHNHYTQKSLSLSPGGGGSPSDIQMTQSPSSVSASVGDRVTITCRASQSLLFSVNQKNYLAWYQQKPGKAPKLLIYWASSLQSGVPSRFSGSGSGTDFTLTISSLQPEDFATYYCQHYYSYPWTFGQGTKVEIKGGGGSGGGGSGGGGSGGGGSQVQLVQSGAEVKKPGSSVKVSCKASGYTFSTSWIEWIRQAPGQGLEWMGSINPGSGSTNYAQKFQGRVTITADTSTSTAYMELSSLRSEDTAVYYCARGDDGSYVRWYFDHWGQGTLVTVSS
notes: also called H-Leu52Asn
Regarding B10, the binding result with human CD40 full-length and with Cynomolgus CHOK1SV/CD40 was “binds” each time.

B11: PDL01036 (6F6HL x human IgG1 WT Fc) (Fc fusion)
chain: QGQMQQSGAELVKPGASVKLSCKTSGFTFSSSYITWLKQKPGQSLEWIAWIYVGTGGISYNQKFTGKAQLTVDTSSSTAYMQFSSLTTEDSAIYYCARHGRYHWYFDVWGAGTTVTVSSGGGGSGGGGSGGGGSGGGGSDIVMTQSHKFMSTSVGDRVTITCKASQDVGTAVAWYQKKPGQSPKLLISWASTRHTGVPDRFTGSGSGTDFTLTISNVQSEDLADYFCQQYSSYPYTFGGGTNLEIK
notes: also called 6F6 clone PDL0136; not shown: human IgG1 WT Fc
Regarding B11, the binding result with Human PD-L1 full-length and with Cyno PD-L1 full-length was “binds” each time.

B12: PDL01051 (antibody, human IgG1, kappa, V domains shown)
VH: EVQLQESGPSLVKPSQTLSLTCSVTGDSITSGYWNWIRKFPGNRLEYMGFRSYSGTTYYNPSLKSRISITRDTSKNQYYLQLNSVTTEDTATYYCARFSDFGSSENTMDYWGQGTSVTVSS
VL: DIVMTQSHKFMSTSVGDRVTITCKASQDVGTAVAWYQKKPGQSPKLLISWASTRHTGVPDRFTGSGSGTDFTLTISNVQSEDLADYFCQQYSSYPYTFGGGTNLEIKR
notes: positive control; also called 7A3 chimeric mAb
As for B12, the binding result in the assay with Human PD-L1 full-length and in the assay with Cyno PD-L1 full-length was “binds” in each case.
